In the assay the target is T1, human thrombopoietin receptor, c-Mpl (human, UniProt P40238 26-491).
T1 construct: extracellular domain; Antigen of the library panning; also called MPL (human thrombopoietin receptor tyrosine kinase ECD)
T1 sequence (looked up): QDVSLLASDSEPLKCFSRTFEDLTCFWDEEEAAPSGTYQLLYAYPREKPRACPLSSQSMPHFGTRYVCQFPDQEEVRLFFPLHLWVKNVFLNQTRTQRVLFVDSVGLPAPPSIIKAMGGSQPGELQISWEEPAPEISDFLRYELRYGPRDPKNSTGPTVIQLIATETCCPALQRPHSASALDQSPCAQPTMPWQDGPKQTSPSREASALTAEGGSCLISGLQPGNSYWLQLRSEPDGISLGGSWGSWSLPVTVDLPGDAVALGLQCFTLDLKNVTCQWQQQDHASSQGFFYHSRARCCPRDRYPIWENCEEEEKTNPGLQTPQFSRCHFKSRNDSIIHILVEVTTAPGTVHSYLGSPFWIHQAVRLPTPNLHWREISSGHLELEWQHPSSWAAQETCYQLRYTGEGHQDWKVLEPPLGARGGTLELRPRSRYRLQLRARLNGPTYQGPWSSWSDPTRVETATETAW
Description: scFv from panning of a human scFv phage library.

B1: anti-Mpl scFv, 12B5 (scFv)
scFv: QVQLVQSGGGLVRPGGSLSLSCAVSGITLRTYGMHWVRQAPGKGLEWVAGISFDGRSEYYADSVQGRFTISRDSSKNTLYLQMNSLRAEDTAVYYCARGAHYGFDIWGQGTMVTVSSGGGGTGGGGSGGGGSDIQMTQSPSTLSASIGDRVTITCRASEGIYHWLAWYQQKPGKAPKLLIYKASSLASGAPSRFSGSGSGTDFTLTISSLQPDDFATYYCQQYSNYPLTFGGGTKLEIK
Take B1: the binding result was “binds”.

The values are drawn from patent US7951917 (Genentech, dated 2011).
